Source: patent publication US20210130428A1 (Novartis, published 2021)

T1: human BMP6 (Bone Morphogenetic Protein 6) (human, UniProt P22004 382-513, limits assumed)
T1 sequence (looked up): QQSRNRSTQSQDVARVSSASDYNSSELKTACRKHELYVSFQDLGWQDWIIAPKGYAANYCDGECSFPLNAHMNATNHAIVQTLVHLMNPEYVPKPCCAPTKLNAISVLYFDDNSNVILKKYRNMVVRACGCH

T2: human BMP5 (Bone Morphogenetic Protein 5) (human, UniProt P22003 317-454, limits assumed)
T2 sequence (looked up): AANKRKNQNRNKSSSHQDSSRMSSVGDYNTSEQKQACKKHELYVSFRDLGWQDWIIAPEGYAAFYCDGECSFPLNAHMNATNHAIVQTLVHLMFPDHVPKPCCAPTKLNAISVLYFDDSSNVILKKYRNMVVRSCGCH

T3: human BMP7 (Bone Morphogenetic Protein 7) (human, UniProt P18075 293-431)
T3 sequence (looked up): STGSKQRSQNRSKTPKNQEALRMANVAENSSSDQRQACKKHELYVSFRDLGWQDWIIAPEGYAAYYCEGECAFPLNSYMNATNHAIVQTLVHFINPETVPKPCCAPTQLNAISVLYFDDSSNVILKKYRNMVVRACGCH

T4: Mouse BMP6 (mouse, UniProt P20722)
T4 construct: Antigen no
T4 sequence (ligand, looked up): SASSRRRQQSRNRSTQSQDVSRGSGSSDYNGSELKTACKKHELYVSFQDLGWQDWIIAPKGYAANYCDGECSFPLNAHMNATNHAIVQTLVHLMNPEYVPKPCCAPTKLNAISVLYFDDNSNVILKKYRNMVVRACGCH

T5: hBaffR (human, UniProt Q96RJ3)
T5 construct: Unrelated control antigen no
T5 sequence (control antigen, looked up): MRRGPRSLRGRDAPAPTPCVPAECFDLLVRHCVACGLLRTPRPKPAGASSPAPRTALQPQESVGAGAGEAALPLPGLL


Assays:
[1] = molecular target: T1, human BMP6 (Bone Morphogenetic Protein …); assay: cell-based or functional assay
[2] = molecular target: T2, human BMP5 (Bone Morphogenetic Protein …); assay: cell-based or functional assay
[3] = molecular target: human BMP2 (Bone Morphogenetic Protein 2) (human, UniProt P12643 283-396); assay: cell-based or functional assay
[4] = molecular target: T3, human BMP7 (Bone Morphogenetic Protein …); assay: cell-based or functional assay
[5] = molecular target: T1, human BMP6 (Bone Morphogenetic Protein …); assay: cell-based or functional assay; remark: listed apart in the source
[6] = molecular target: T1, human BMP6 (Bone Morphogenetic Protein …); assay: method not stated (Table 8, KD(nM) BMP6)
[7] = molecular target: T1, human BMP6 (Bone Morphogenetic Protein …); assay: cell-based or functional assay; remark: listed apart in the source
Mouse BMP6 = molecular target: T4, Mouse BMP6; assay: ELISA binding assay, fluorescence signal intensity (anti-Fab-AP detection); one bar per antigen, antibody concentration not given
[8] = molecular target: human BMP7 (Bone Morphogenetic Protein 7) (human) (UniProt P18075); assay: cell-based or functional assay
[9] = molecular target: T2, human BMP5 (Bone Morphogenetic Protein …); assay: ELISA binding assay, fluorescence signal intensity (anti-Fab-AP detection); antibody concentration not given
hBaffR = molecular target: T5, hBaffR; assay: as above
BSA = molecular target: T6, BSA (bovine, UniProt P02769); assay: as above
T6 construct: Unrelated control antigen no

[10] = molecular target: human BMP7 (Bone Morphogenetic Protein 7) (human) (UniProt P18075); assay: ELISA binding assay

Sequence of human BMP2 (Bone Morphogenetic Protein 2) (P12643 283-396 limits assumed): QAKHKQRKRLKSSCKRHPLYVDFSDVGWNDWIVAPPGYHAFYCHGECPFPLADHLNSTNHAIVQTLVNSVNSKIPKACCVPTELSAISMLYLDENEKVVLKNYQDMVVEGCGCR
T6 sequence (P02769 25-607 limits assumed): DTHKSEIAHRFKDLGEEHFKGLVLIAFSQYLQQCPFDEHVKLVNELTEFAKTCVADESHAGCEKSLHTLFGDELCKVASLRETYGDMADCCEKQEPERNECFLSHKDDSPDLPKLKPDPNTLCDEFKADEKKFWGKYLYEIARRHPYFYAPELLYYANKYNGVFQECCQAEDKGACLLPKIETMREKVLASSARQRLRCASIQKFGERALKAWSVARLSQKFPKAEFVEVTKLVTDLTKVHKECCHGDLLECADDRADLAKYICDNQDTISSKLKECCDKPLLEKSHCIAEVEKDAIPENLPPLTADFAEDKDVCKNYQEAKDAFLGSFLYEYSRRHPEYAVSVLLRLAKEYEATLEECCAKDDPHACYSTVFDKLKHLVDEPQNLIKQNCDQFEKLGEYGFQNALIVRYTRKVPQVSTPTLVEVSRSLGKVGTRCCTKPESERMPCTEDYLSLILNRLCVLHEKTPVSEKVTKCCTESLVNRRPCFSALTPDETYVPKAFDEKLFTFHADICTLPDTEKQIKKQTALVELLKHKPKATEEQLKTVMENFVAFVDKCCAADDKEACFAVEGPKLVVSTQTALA

Binder	IC50 (read off the curve), BMP reporter gene assay [panel Ab5] [1] [nM]	selectivity window against BMP6, BMP reporter gene assay [2] [fold]	selectivity window against BMP6, BMP reporter gene assay [3] [fold]	selectivity window against BMP6, BMP reporter gene assay [4] [fold]	IC50, BMP reporter (BRE-luc) activity in Hep3B [5] [nM]	Kd [6] [nM]	IC50(ug/ml) BMP6 reporter [7] [µg/mL]	binding result (Mouse BMP6)	IC50 (read off the curve), BMP reporter gene assay [panel Ab7] [1] [nM]	selectivity window against BMP6, BMP reporter gene assay [8] [fold]	binding result [9]	binding result (hBaffR)	binding result (BSA)	selectivity, affinity to human BMP6 over affinity to human BMP7 [10] [fold]	IC50 (read off the curve), BMP reporter gene assay [panel Ab6] [1] [nM]
Antibody 5 (antibody, human IgG1, lambda, V domains shown, also called Ab 5) VH: QVQLVESGGGLVKPGGSLRLSCAASGFTFSSYVVHWVRQAPGKGLEWVGRIKRESSSYTTMYAAPVKGRFTISRDDSKNTLYLQMNSLKTEDTAVYYCARVERSKSGFDNWGQGTLVTVSS VL: QSVLTQPPSVSGAPGQRVTISCTGSSSNIGAGYSVHWYQQLPGTAPKLLIYGQSERPSGVPDRFSGSKSGTSASLAITGLQAEDEADYYCQSWDSSQTLVVFGGGTKLTVLG	~0.5	≥ 500	≥ 500	≥ 500	0.4	0.1	0.06	–	–	–	–	–	–	–	–
Antibody 7 (antibody, human IgG1, lambda, V domains shown, also called Ab 7; Ab7) VH: QVQLVESGGGLVKPGGSLRLSCAASGFTFSSYVVHWVRQAPGKGLEWVGRIRLETHGYAAEYAASVKGRFTISRDDSKNTLYLQMNSLKTEDTAVYYCARVERSKSGFDNWGQGTLVTVSS VL: QSVLTQPPSVSGAPGQRVTISCTGSSSNIGAGYSVHWYQQLPGTAPKLLIYGQSERPSGVPDRFSGSKSGTSASLAITGLQAEDEADYYCQSWDSSQTLVVFGGGTKLTVLG	–	≥ 500	≥ 500	–	0.4	0.1	0.07	binds	~0.5	> 500	no binding	no binding	no binding	> 500	–
Antibody 6 (antibody, human IgG1, lambda, V domains shown, also called Ab 6) VH: QVQLVESGGGLVKPGGSLRLSCAASGFTFSSYVVHWVRQAPGKGLEWVGRTRHSDMGYATSYAAPVKGRFTISRDDSKNTLYLQMNSLKTEDTAVYYCARVERSKSGFDNWGQGTLVTVSS VL: QSVLTQPPSVSGAPGQRVTISCTGSSSNIGAGYSVHWYQQLPGTAPKLLIYGQSERPSGVPDRFSGSKSGTSASLAITGLQAEDEADYYCQSWDSSQTLVVFGGGTKLTVLG	–	≥ 500	≥ 500	≥ 500	0.4	< 0.1	0.08	–	–	–	–	–	–	–	~0.5
